Reference: patent publication US5981483A, “Compositions comprising modulators of cytokines of the TGF-β superfamily” (Mount Sinai Hospital Corporation, priority 1997, dated 1999)

Target: T1, BMP-2 (Homo sapiens, UniProt P12643)
T1 construct: Genetics Institute, Cambridge, Mass; (gift)
T1 sequence (P12643 283-396): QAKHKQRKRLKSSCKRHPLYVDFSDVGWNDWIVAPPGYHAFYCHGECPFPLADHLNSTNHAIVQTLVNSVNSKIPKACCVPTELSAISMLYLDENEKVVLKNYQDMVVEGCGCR
Assay: BIAcore surface plasmon resonance, binding to immobilized BMP-2
Conditions: Table 2 (calculations repeated); ligand BMP-2
Method: In this system, a purified protein serving as the ligand is covalently coupled to a carboxymethylated dextran surface, and binding molecules (i.e. the analyte) are passed in a fluid phase across the surface. Binding of the analyte to ligand causes a change in reflected light which is directly proportional to mass bound, and is measured in arbitrary response units (R.U.). Analyte-ligand binding is observed as both increasing response with time during the injection of analyte, and the difference in the position of the baseline before and after injection.
Schuster, R. V. Swanson, L. A. Alex, R. B. Bourret, M. I. Simon, Nature 365, 343 (1993). 1000 R.U. equals approximately 1 ng/mm^2. The running buffer was 20 mM Hepes (pH 7.2), 150 mM NaCl and the flow rate for all sensorgrams was 3 μl/min.
Regeneration of the surface to remove bound analyte was done by injection of 10 μl of 20 mM NaOH. To cyclize TRH1 peptides, the material was reduced with 5 mM DTT then brought to a final concentration of 60 μM in 25 mM ammonium acetate (pH 8.5). […]
Data was analyzed using the BIA-evaluation software (Pharmacia Biosensor). The association rate constant, kass, was calculated by first plotting the change in response with time versus response (i.e. dR/dT vs R). […] The affinity constants were calculated from KD =kdiss /kass. […]

B1: h-Fetuin: adult human fetuin/α2-HS glycoprotein (Calbiochem) (protein)
chain: APHGPGLIYRQPNCDDPETEEAALVAIDYINQNLPWGYKHTLNQIDEVKVWPQQPSGELFEIEIDTLETTCHVLDPTPVARCSVRQLKEHAVEGDCDFQLLKLDGKFSVVYAKCDSSPDSAEDVRKVCQDCPLLAPLNDTRVVHAAKAALAAFNAQNNGSNFQLEEISRAQLVPLPPSTYVEFTVSGTDCVAKEATEAAKCNLLAEKQYGFCKATLSEKLGGAEVAVTCMVFQTQPVSSQPQPEGANEAVPTPVVDPDAPPSPPLGAPGLPPAGSPPDSHVLLAAPPGHQLHRAHYDLRHTFMGVVSLGSPSGEVSHPRKTRTVVQPSVGAAAGPVVPPCPGRIRHFKV
With B1 the kass was 22000 ± 5000 M⁻¹ s⁻¹.
